Measured values from the supplement of paper PMC10724198.
± gives the standard deviation of the averaged measurements.
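Note: PSI is a weighted mean of sequencing reads over stability bins, variants kept only with over 10 reads, mCherry proximal and sfGFP distal, peptide attached via GGGS linker.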

What follows are sequences tested on Saccharomyces cerevisiae (assay: protein stability index of tFT-peptide fusion (C-terminal peptide) (PSI (0-1 scale)); higher = more stable (slower turnover)). Details: genetic background: wild type; temperature: 30 C.
Procedure: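 Multiplexed protein stability (MPS) profiling in S. cerevisiae. Random 12-aa peptides (tFT-X12 library) are fused to the C-terminus of a sfGFP-mCherry tandem fluorescent timer, after mCherry and a GGGS linker. Cells are FACS-sorted into 8 mCherry/sfGFP bins and deep-sequenced. The protein stability index (PSI) is the read-weighted bin average, scaled from 0 (unstable) to 1 (stable). Only peptides with >10 reads are reported; cells were grown at 30 °C in SC-His with glucose.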
AADVALQFKPRT gave a protein stability index of 0.658 ± 0.027.
AAFHSSSAFFFN gave a protein stability index of 0.718 ± 0.019.
Sequence AAGAGAPRRPLL has a protein stability index of 0.683 ± 0.02.
For AAGGASRHLSGS, the protein stability index was 0.71 ± 0.09.
In the case of AAIVVRLCSLLR, the protein stability index is reported as 0.593 ± 0.0091.
In the case of AALSNRGIHWWK, the protein stability index is reported as 0.732 ± 0.018.
With AAPGMIFRDPAQ the protein stability index was 0.739 ± 0.18.
With AAPPPRRPCPPL the protein stability index was 0.678 ± 0.038.
AAQRGSTMARGG gave a protein stability index of 0.704 ± 0.064.
AARRPARACGGQ showed a protein stability index of 0.632 ± 0.025.
Work on AAWSGGGAGCWT yielded a protein stability index of 0.708 ± 0.041.
ACLGVSTPSLGI gave a protein stability index of 0.672 ± 0.027.
ACLIHWVVSGAR showed a protein stability index of 0.677 ± 0.016.
For ACPCTLCMALSR, the protein stability index was 0.6476 ± 0.0014.
With ACREVAGAPGGL the protein stability index was 0.671 ± 0.035.
ACVRVVRLGCGW gave a protein stability index of 0.616 ± 0.063.
ACWGCGVGRGEV gave a protein stability index of 0.814 ± 0.12.
For ADKNQQTVNWRR, the protein stability index was 0.6956 ± 0.0019.
Sequence ADLPALGSCGSY has a protein stability index of 0.631 ± 0.013.
In the case of ADPPLFYPPSHT, the protein stability index is reported as 0.69 ± 0.021.
With ADWGSRRPSRCP the protein stability index was 0.68915 ± 0.00051.
AEAFFRIVRTVR was tested, and the protein stability index was 0.721 ± 0.034.
In the case of AEAKAVKSVSVR, the protein stability index is reported as 0.638 ± 0.042.
Sequence AEARTRYVPRPR has a protein stability index of 0.686 ± 0.02.
For AEEAEVAGPRHC, the protein stability index was 0.777 ± 0.18.
AEFMRGVFKVSC gave a protein stability index of 0.6816 ± 0.0036.
For AELSTRPPAPPL, the protein stability index was 0.715 ± 0.096.
Sequence AERSVRGTTPGG has a protein stability index of 0.632 ± 0.051.
AETESASRCLHW gave a protein stability index of 0.776 ± 0.026.
AEWGGSTGGCWG showed a protein stability index of 0.722 ± 0.15.
For AFASVLPSSLSS, the protein stability index was 0.641 ± 0.085.
AFDPGLPPRRSD showed a protein stability index of 0.755 ± 0.011.
With AFGRLNTWFCFP the protein stability index was 0.719 ± 0.037.
In the case of AFLVGDVFGRLL, the protein stability index is reported as 0.602 ± 0.016.
AFMPGLLGDTYE was tested, and the protein stability index was 0.662 ± 0.022.
For AFMVFCRSLLAP, the protein stability index was 0.684 ± 0.014.
Work on AFRCGGGPGDFA yielded a protein stability index of 0.6513 ± 0.0027.
For AFVLTSRVFFPL, the protein stability index was 0.721 ± 0.053.
AFWLPAAVPLIF gave a protein stability index of 0.584 ± 0.022.
AFYFGQFEFWRC showed a protein stability index of 0.698 ± 0.034.
AGAATGAGGLQG showed a protein stability index of 0.672 ± 0.037.
In the case of AGCGGIWGVWVL, the protein stability index is reported as 0.701 ± 0.072.
AGEERWGGCLTG showed a protein stability index of 0.653 ± 0.021.
Sequence AGGAEAVRRAGG has a protein stability index of 0.675 ± 0.019.
AGGGGGTRVHWR showed a protein stability index of 0.682 ± 0.013.
AGGGPGLEARSL showed a protein stability index of 0.612 ± 0.017.
Sequence AGGGWAVQVGMG has a protein stability index of 0.684 ± 0.042.
With AGGPGWGALVGA the protein stability index was 0.645 ± 0.047.
Sequence AGGRGGGGGGDA has a protein stability index of 0.663 ± 0.0071.
Work on AGGSGGGRDRLV yielded a protein stability index of 0.694 ± 0.024.
With AGGSVGEAGSEG the protein stability index was 0.649 ± 0.026.
In the case of AGGWLGAEGCGG, the protein stability index is reported as 0.78 ± 0.033.
In the case of AGICLRSFRCFW, the protein stability index is reported as 0.672 ± 0.0079.
With AGLGGGARQGAL the protein stability index was 0.672 ± 0.024.
In the case of AGLLFDSPPLLV, the protein stability index is reported as 0.725 ± 0.034.
With AGPPRTAVSPPL the protein stability index was 0.675 ± 0.016.
AGQGSISCWSKD gave a protein stability index of 0.707 ± 0.045.
For AGRGGSPRFVGR, the protein stability index was 0.657 ± 0.053.
In the case of AGRGRAIGAGFS, the protein stability index is reported as 0.649 ± 0.054.
AGRRGVNGGGWG gave a protein stability index of 0.686 ± 0.039.
AGRRTGSRESEQ gave a protein stability index of 0.612 ± 0.061.
Sequence AGSAGKWCWCGG has a protein stability index of 0.711 ± 0.039.
With AGSALSSAYTLM the protein stability index was 0.703 ± 0.13.
AGSSFDLGSGYS was tested, and the protein stability index was 0.724 ± 0.083.
Sequence AGSSGVRLSEFP has a protein stability index of 0.671 ± 0.11.
AGSYERFSRGHR showed a protein stability index of 0.688 ± 0.034.
With AGVLTRGNCCGG the protein stability index was 0.6885 ± 0.005.
AGVPCLSVPPLG gave a protein stability index of 0.683 ± 0.031.
With AGVTRALSVFLL the protein stability index was 0.54 ± 0.043.
AGWCWVWGVELV gave a protein stability index of 0.687 ± 0.04.
AGWGGIWGLWVL showed a protein stability index of 0.715 ± 0.11.
Sequence AGYEEWVRDARV has a protein stability index of 0.73 ± 0.0075.
Work on AGYENKAENKSV yielded a protein stability index of 0.656 ± 0.011.
In the case of AGYGGILRSRGG, the protein stability index is reported as 0.698 ± 0.059.
For AHMAQQNEQRVK, the protein stability index was 0.748 ± 0.071.
AHQRSRRPKPSR gave a protein stability index of 0.65 ± 0.072.
AHSPPTRISPTH was tested, and the protein stability index was 0.75 ± 0.097.
AHVLQRVRLLSR showed a protein stability index of 0.618 ± 0.023.
In the case of AIACYLGLTSYP, the protein stability index is reported as 0.647 ± 0.021.
Work on AIAGSLSYCWDD yielded a protein stability index of 0.678 ± 0.022.
AIANIIERFTLL gave a protein stability index of 0.63 ± 0.066.
In the case of AILSDGLTHWGL, the protein stability index is reported as 0.736 ± 0.058.
In the case of AIPAVRFCRTLR, the protein stability index is reported as 0.643 ± 0.055.
In the case of AIRENISIRLNC, the protein stability index is reported as 0.482 ± 0.026.
Sequence AKDSVDYKEGES has a protein stability index of 0.6602 ± 0.0041.
With AKEERKVIRKMK the protein stability index was 0.659 ± 0.063.
With AKETSINKKALI the protein stability index was 0.6903 ± 0.0047.
Work on AKFERRTIGCSA yielded a protein stability index of 0.605 ± 0.0042.
In the case of AKKKKKKIKTKH, the protein stability index is reported as 0.8 ± 0.14.
Work on AKSCNSVHALRT yielded a protein stability index of 0.668 ± 0.11.
For ALASLPPQPHSP, the protein stability index was 0.665 ± 0.047.
ALCQEFAALEPR gave a protein stability index of 0.726 ± 0.051.
For ALFKESMLSTCA, the protein stability index was 0.564 ± 0.022.
For ALLKGASCRTAS, the protein stability index was 0.696 ± 0.03.
For ALLPTLFNSGAV, the protein stability index was 0.736 ± 0.015.
ALPLLPPHSLPP gave a protein stability index of 0.617 ± 0.011.
ALPLRFSSPGPS showed a protein stability index of 0.659 ± 0.0068.
ALPPLLLLPASP showed a protein stability index of 0.691 ± 0.0093.
Sequence ALPPPIPHPLFL has a protein stability index of 0.701 ± 0.019.
Work on ALPPPLPPPAGP yielded a protein stability index of 0.699 ± 0.077.
ALQLLNPSLLKY showed a protein stability index of 0.786 ± 0.06.
Work on ALQVKWRGCLRF yielded a protein stability index of 0.733 ± 0.099.
With ALRMVRHCPVNT the protein stability index was 0.667 ± 0.029.
Work on ALSLARVSSPLF yielded a protein stability index of 0.707 ± 0.06.
ALSPAPGTSLMR showed a protein stability index of 0.69 ± 0.016.
For ALSRRPAAGDGP, the protein stability index was 0.641 ± 0.024.
Work on ALTGYYNQYRYE yielded a protein stability index of 0.745 ± 0.025.
Work on ALVAGGRGRRLW yielded a protein stability index of 0.692 ± 0.087.
ALVAPAYYWGDV showed a protein stability index of 0.745 ± 0.059.
For ALVRGGYLFFPP, the protein stability index was 0.663 ± 0.026.
ALWQADTRSVNN showed a protein stability index of 0.64 ± 0.097.
In the case of ALYISLRELACP, the protein stability index is reported as 0.548 ± 0.018.
For AMFFAFSRSLMS, the protein stability index was 0.639 ± 0.026.
AMLDSPRHLPSA was tested, and the protein stability index was 0.679 ± 0.041.
Work on ANSGSRSSRVVG yielded a protein stability index of 0.643 ± 0.1.
Sequence APAPSPPPPPPD has a protein stability index of 0.562 ± 0.037.
APDRPTPSLSSP gave a protein stability index of 0.7057 ± 0.0053.
In the case of APFRVALPGVCG, the protein stability index is reported as 0.623 ± 0.02.
Work on APHPYPPTPPAP yielded a protein stability index of 0.725 ± 0.014.
Work on APILLFIEPLPP yielded a protein stability index of 0.5631 ± 0.0037.
For APLPHAASSLPA, the protein stability index was 0.6982 ± 0.0046.
APPAHPARSHTP showed a protein stability index of 0.69 ± 0.019.
With APPARGTGRASL the protein stability index was 0.738 ± 0.017.
Work on APPARSTPPPRP yielded a protein stability index of 0.712 ± 0.045.
With APPHPPPPLPPP the protein stability index was 0.6366 ± 0.0052.
APPLPPLFPPSP showed a protein stability index of 0.677 ± 0.047.
For APPLPPPPLDTS, the protein stability index was 0.729 ± 0.011.
For APPPFLCSPFVA, the protein stability index was 0.698 ± 0.0092.
APPPHPRHPTHS gave a protein stability index of 0.777 ± 0.089.
APPPMPLPLIPL gave a protein stability index of 0.633 ± 0.04.
With APPPPHSSHPPP the protein stability index was 0.713 ± 0.027.
APPPPLLPHPTP was tested, and the protein stability index was 0.736 ± 0.028.
APPPPPPAPQPP gave a protein stability index of 0.619 ± 0.067.
In the case of APPPPPPSPRVP, the protein stability index is reported as 0.71 ± 0.047.
With APPQFPLTPPPP the protein stability index was 0.647 ± 0.011.
APPRPPPRPHPP was tested, and the protein stability index was 0.571 ± 0.063.
APPVAKHHAGKD showed a protein stability index of 0.647 ± 0.016.
With APRPRHFPTLPS the protein stability index was 0.812 ± 0.077.
APRRVAVAGETS was tested, and the protein stability index was 0.707 ± 0.043.
APSPPPDPATPR was tested, and the protein stability index was 0.672 ± 0.026.
APSSLLTPPACI gave a protein stability index of 0.734 ± 0.083.
Work on APSSPRSSTPRP yielded a protein stability index of 0.763 ± 0.085.
APTGGTNVRRPE showed a protein stability index of 0.726 ± 0.024.
APTPPPPLSPRS gave a protein stability index of 0.69 ± 0.034.
In the case of APTVPQILVRHA, the protein stability index is reported as 0.6736 ± 0.0047.
Work on APVGLTFNSSLL yielded a protein stability index of 0.7107 ± 0.0032.
In the case of APYLPACALSSL, the protein stability index is reported as 0.706 ± 0.015.
For APYSGSAMVIPG, the protein stability index was 0.713 ± 0.028.
For AQAPSPGRAPSP, the protein stability index was 0.7158 ± 0.0022.
For AQFFQALATYPI, the protein stability index was 0.677 ± 0.022.
Sequence AQHTGFMRELRR has a protein stability index of 0.7278 ± 0.0016.
With AQPLARTALPRR the protein stability index was 0.775 ± 0.019.
With AQRKSVLSPDLC the protein stability index was 0.67 ± 0.035.
AQTEADGRAHDP gave a protein stability index of 0.6344 ± 0.0058.
ARADIQIACIIE showed a protein stability index of 0.6418 ± 0.00089.
